Consider 167 variants from the RNAGym collection of RNA variant scans (doi:10.7554/elife.80360).

B1: CPEB3 Ribozyme (parent)
chain: GGGGGCCACAGCAGAAGCGUUCACGUCGCGGCCCCUGUCAGAUUCUGGUGAAUCUGCGAAUUCUGCUGU

The variants in this data set derive from B1. Description: self-cleavage, relative activity (ratio to wild type); higher = more cleavage; co-transcriptional.
G50C G65U: the self-cleavage came to 0.774.

U49G A52G: the self-cleavage is 0.94.

On to A51U U61C, for which the self-cleavage is 0.808.

In the case of C54G C57U, the self-cleavage was found to be 0.392.

A51G C57G: the self-cleavage is 0.322.

C54G U64A: the self-cleavage came out at 0.63.

Take C54G U64C: the self-cleavage was determined as 0.542.

Regarding U49C A60G, the self-cleavage worked out at 0.955.

In the case of U49G U67C, the self-cleavage was 0.964.

With C54G C66G, the self-cleavage was 0.533.

With C54G C66A, the self-cleavage stood at 0.514.

As for A51C A52U, the self-cleavage stood at 0.864.

With A52U G65U, the self-cleavage was 0.664.

A52U G65C: the self-cleavage was 0.549.

Consider U49G U61G, for which the self-cleavage came to 0.991.

In the case of C54A G56C, the self-cleavage turned out to be 0.431.

As for U53C U69A, the self-cleavage turned out to be 0.977.

For the variant C54A G58A, the self-cleavage was found to be 0.883.

With G50A G56U, the self-cleavage came to 0.905.

Turning to G50A G56C, the self-cleavage came to 0.675.

Regarding G50A A51C, the self-cleavage turned out to be 1.02.

For A51C G65U, the self-cleavage is 0.729.

In the case of U53G C57G, the self-cleavage amounted to 0.403.

Take G50U C54G: the self-cleavage stood at 0.781.

As for U49G C66A, the self-cleavage came to 0.891.

In the case of U53A C57A, the self-cleavage turned out to be 0.402.

As to A52U U64A, the self-cleavage is 0.87.

U49A G58A: the self-cleavage is 1.01.

A52G U53C: the self-cleavage stood at 0.892.

Turning to A52G U53G, the self-cleavage was 0.72.

Take U49C C63U: the self-cleavage came to 0.993.

Take A52G C57A: the self-cleavage came out at 0.343.

Take C54U U69A: the self-cleavage stood at 1.04.

In the case of A52C C63A, the self-cleavage was determined as 0.795.

With G50C A52U, the self-cleavage is 0.884.

Take G50U C63G: the self-cleavage turned out to be 0.844.

Take U53C U61A: the self-cleavage was 0.577.

As to U53C U61C, the self-cleavage came out at 0.342.

Turning to G50U G68U, the self-cleavage was found to be 1.02.

Consider G50C U64A, for which the self-cleavage stood at 0.792.

On to A52G A59U, for which the self-cleavage worked out at 0.82.

With A52G A59C, the self-cleavage turned out to be 0.793.

A52G A59G: the self-cleavage amounted to 0.98.

In the case of C54G U67A, the self-cleavage stood at 0.938.

Consider A52U U61G, for which the self-cleavage is 0.741.

G50A U69A: the self-cleavage was found to be 0.982.

On to G50U A59C, for which the self-cleavage came to 0.682.

As for U53A U67C, the self-cleavage came out at 0.975.

For U53A U55C, the self-cleavage amounted to 0.43.

As for U53A U55G, the self-cleavage was 0.411.

As for A52U G68A, the self-cleavage turned out to be 0.975.

With U49G G68C, the self-cleavage was determined as 0.958.

In the case of U49G G68A, the self-cleavage came to 1.

Consider U49A U53C, for which the self-cleavage was 0.991.

Consider A52U G58A, for which the self-cleavage was 0.939.

In the case of A51U G58C, the self-cleavage came to 0.975.

For the variant A51U G58A, the self-cleavage was found to be 0.941.

As to A51C A60C, the self-cleavage is 0.477.

Take G48U G58C: the self-cleavage amounted to 0.999.

For A51G U61C, the self-cleavage stood at 0.777.

Regarding U53A A60U, the self-cleavage was 0.35.

On to U53A A60G, for which the self-cleavage came out at 0.777.

With U53A A60C, the self-cleavage worked out at 0.324.

With G50A A52G, the self-cleavage turned out to be 1.

U53C G65U: the self-cleavage amounted to 0.429.

Consider A51U A52U, for which the self-cleavage turned out to be 0.96.

Consider A52C U64A, for which the self-cleavage stood at 0.875.

As for U53G C63G, the self-cleavage amounted to 0.523.

Regarding U53G C63U, the self-cleavage stood at 0.849.

Take U53G C63A: the self-cleavage came out at 0.494.

As to U53G U62G, the self-cleavage stood at 0.558.

With U49G G65A, the self-cleavage came to 0.97.

Take G50U C66G: the self-cleavage came out at 0.923.

As to G50U C66U, the self-cleavage worked out at 1.01.

Take G50U C66A: the self-cleavage came to 0.824.

As for U53A U69C, the self-cleavage was 1.06.

With A52G U61G, the self-cleavage was 0.861.

As for A52G U61A, the self-cleavage is 0.89.

For G50A U67C, the self-cleavage amounted to 1.01.

Take G50A U67G: the self-cleavage was 1.02.

With A51C U64G, the self-cleavage came out at 0.841.

For G50A C66G, the self-cleavage was 0.902.

For G50A C66A, the self-cleavage worked out at 0.848.

Consider G50A, for which the self-cleavage came out at 0.999.

For G50C, the self-cleavage was determined as 0.996.

Regarding G50U, the self-cleavage came out at 0.997.

As to G50U G65U, the self-cleavage turned out to be 0.809.

For the variant G50U G65C, the self-cleavage is 0.73.

For the variant A51U U55G, the self-cleavage was 0.662.

Take C54A U62A: the self-cleavage came to 0.546.

On to U53A C63A, for which the self-cleavage stood at 0.673.

A52U G56A: the self-cleavage was determined as 0.909.

Regarding A52U G56U, the self-cleavage worked out at 0.848.

On to U53G G68U, for which the self-cleavage is 0.986.

For U53G G68C, the self-cleavage came to 0.882.

In the case of A51C U61G, the self-cleavage stood at 0.551.

With A51C U61C, the self-cleavage is 0.796.

Regarding C54G G56U, the self-cleavage was 0.46.

In the case of G50U A52G, the self-cleavage turned out to be 0.976.

Consider G50C G68A, for which the self-cleavage was determined as 0.992.

U49C U61C: the self-cleavage amounted to 0.816.

With U49C U61A, the self-cleavage is 0.911.

For U49A A51C, the self-cleavage was 0.633.

U49A A51G: the self-cleavage is 1.05.

Turning to G50C A60G, the self-cleavage amounted to 0.959.

For the variant C54A C66G, the self-cleavage amounted to 0.466.

Take G50U U53G: the self-cleavage was determined as 0.871.

Turning to G50U U53C, the self-cleavage came to 0.909.

For the variant U53A G56C, the self-cleavage amounted to 0.411.

For the variant U53A G56A, the self-cleavage worked out at 0.736.

Regarding U53G C66U, the self-cleavage is 0.929.

U53G C66G: the self-cleavage is 0.647.

As to A51C C57G, the self-cleavage amounted to 0.38.

Turning to U49C U62A, the self-cleavage was determined as 0.98.

For the variant G50C U69C, the self-cleavage came out at 1.07.

As to U55A A60C, the self-cleavage amounted to 0.343.

Turning to C54G U69C, the self-cleavage is 1.04.

As to U49G U69C, the self-cleavage is 1.06.

Consider U49G U69A, for which the self-cleavage stood at 1.01.

For G50C C54A, the self-cleavage was 0.53.

Take G50C A51G: the self-cleavage was 0.982.

Regarding G50C A51C, the self-cleavage amounted to 0.876.

Turning to C54G C63A, the self-cleavage came out at 0.543.

Take U55A: the self-cleavage is 0.96.

Take G50A G68A: the self-cleavage amounted to 1.03.

As to U53G U69A, the self-cleavage is 0.982.

As for A51G G56A, the self-cleavage stood at 0.91.

As for A51G G56C, the self-cleavage is 0.69.

Take G50A U64G: the self-cleavage stood at 0.892.

In the case of G50A U64C, the self-cleavage was found to be 0.874.

Turning to U49C C66A, the self-cleavage turned out to be 0.77.

For G48U C57U, the self-cleavage was 0.388.

As to G48U C57G, the self-cleavage came out at 0.398.

As to C54U A59C, the self-cleavage was 0.678.

Turning to G50U G58C, the self-cleavage was 0.942.

Take U49C A51G: the self-cleavage was 1.03.

For A52U C66G, the self-cleavage is 0.695.

With G50A C54G, the self-cleavage came to 0.848.

G50A C54U: the self-cleavage worked out at 0.992.

Regarding A52G U67C, the self-cleavage was determined as 0.944.

Consider A52G U67G, for which the self-cleavage is 1.02.

As to A51C C54A, the self-cleavage came to 0.582.

In the case of A51G U69C, the self-cleavage turned out to be 1.06.

As to A51U U53A, the self-cleavage came out at 0.918.

With A52U C54U, the self-cleavage is 0.976.

In the case of C54A G68C, the self-cleavage worked out at 0.942.

C54A G68U: the self-cleavage is 0.963.

As for G50U U62C, the self-cleavage is 0.866.

For U53C U67C, the self-cleavage was found to be 0.872.

Take U53C U67A: the self-cleavage is 0.793.

In the case of U53C U67G, the self-cleavage is 0.822.

For the variant U49A C57U, the self-cleavage was 0.379.

Turning to U53C C63U, the self-cleavage is 0.786.

A52C G58C: the self-cleavage amounted to 0.986.

With A52C G58A, the self-cleavage is 0.887.

For C54A U64G, the self-cleavage was 0.471.

Turning to G50C C57G, the self-cleavage was determined as 0.314.

Take C54U G58U: the self-cleavage worked out at 1.02.

With A51C U67C, the self-cleavage was 0.943.

As to U55A C57U, the self-cleavage stood at 0.369.

As to U55A C57G, the self-cleavage was 0.33.

In the case of U55A C57A, the self-cleavage amounted to 0.34.

Regarding G50A U61G, the self-cleavage is 0.876.

In the case of U49A U64A, the self-cleavage turned out to be 0.942.

Take A52C C57A: the self-cleavage is 0.414.

Regarding A52C C57U, the self-cleavage stood at 0.398.

As to A51C G56C, the self-cleavage was 0.57.
